Experimental findings from PMC3897220, “A comparative study of Whi5 and retinoblastoma proteins: from sequence and structure analysis to intracellular networks” (Frontiers in Physiology, 2013) are described below.

Experiment [1] addresses Whi5 (Whi5Sc) motif 3, 245-267 (UniProt Q12416). In words: SPR, biotinylated motif 3 on streptavidin chip. Conditions: reference: unphosphorylated motif 1 peptide; sites T143,S154,S156,S161. (Surface plasmon resonance follows binding to a sensor surface in real time, without labels.)
The target of experiment [2] is T1, Whi5^Sc motif 3 peptide (residues 245-267), biotinylated (S. cerevisiae, UniProt Q12416 245-267, biotin (position not given)).
T1 construct: Whi5 of Saccharomyces cerevisiae, motif 3, residues 245-267 (Whi5^Sc numbering); Held on a streptavidin chip by its biotin; source: synthetic peptide (Primm, Milano, Italy)
T1 peptide (looked up): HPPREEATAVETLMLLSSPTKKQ
In words: SPR; BIAcore X; biotinylated motif 3 immobilised on streptavidin Sensor Chip SA (~1000 resonance units), reference cell saturated with biotin; analytes motif 1 and phospho-motif 1 at 20 to 340 uM; HBS-EP buffer, flow 5 ul/min. The settings on record: both partners purified.

With “Whi5 (Whi5Sc) motif 1, 136-162 (from UniProt Q12416) phospho-motif 1 peptide (pT143, pS154, pS156, pS161)”, the “binding against the reference” value in experiment [1] is given as “weaker”.

B1: Whi5^Sc motif 1 peptide (residues 136-162) (peptide, UniProt Q12416 136-162, looked up)
peptide: MPLLPPTTPKSRRSEVFLSPSPRLRSP
notes: Whi5 of Saccharomyces cerevisiae, motif 1, residues 136-162 (Whi5^Sc numbering); source: synthetic peptide (Primm, Milano, Italy)
For the molecule B1, in experiment [2], the binding result is “binds”.
